Results taken from the DeepSol protein solubility set.

Test: soluble on expression in E. coli; label from the status in PepcDB or PDB records

Row | Sequence | soluble on expression in E. coli
1 | MGSDKIHHHHHHMPPLPVLNRPQIHTSVTEISHAIDRTIKEELFPVAYTTEEEQYFKTNPKPAYIDELIKDAKEFIDLQYSLKRNKIVLITSGGTTVPLENNTVRFIDNFSAGTRGASSAEQFLANGYSVIFLHREFSLTPYNRSFSHSINTLFLDYIDSEGKIKPEFAENVLKNKKLYDKYMEKEEKLLLLPFTTVNQYLWSLKSIAKLLNNSGCLFYLAAAVSDFFVPYSRLPQHKIQSGDNGKMGANNDTEGTTRTTPDGKLIVNLDPVPKFLRRLVESWATQAMIVSFKLETDESMLLYKCTQALDRYNHQLVIGNLLQTRNKQVIFVSPENRKGDWVRLDEKHHIIEEMIIPEVIARHDKWVAHSKTKLATK | not soluble
2 | MKRFGRFAGIALVLVVAALTARSCFSHDLIVRLSDRKEISFKQMMGDLRKVAVIYVGEVHDNPDHHVLQLRIIRGLHRAGVPLAIGMEMFTAGSQQELDRWVAGQTGTAAFQRIYRREWNLPWSLYGDILLFARDKRIPLIGLNVPRDITRKVGREGFASLTEDERRKLPPNITCDVDESYMAMIHRSYSSHGLSANTFRNFCEAQMLWNKSMAYHMVEYLRKNPGRTVVVITGGGHAIRGGMPVQVDRERPGLSSRVVLPDPVVRNGRIKAEEADYLWLSHLEHHHHHH | not soluble
3 | MNETTNEQEVLLLRRKLDLLLRTGKLLMESAADTNRIERNMKRVAAYLGIPEEKLHIDIRWTMLMVNVSDEKHSFSKFQKCEKHGINMEAISKISKLSWRAIEQDYSLDKYEEELEKIARQERNYTPYVVAICTGFACGGFCK | not soluble
4 | MSLAGHQPILTVSEVTRHLKRTIEDDPLLQDVWMRGEISNFKHHSRGHMYFTLKDEHAKMSAVMFAGNNRFLNFKPENGMKVIVRGEVNVYEPFGQYQLYALEMQPDGIGNLYLAYEQLKERLEQEGLFKEENKKPLPPVARQIAIVTSPTGAAIRDIASTIKRRFPVAQLTLLPVLVQGEEAPHSIAKAIRQANEVGGFDLLIVGRGGGSIEELWAFNEELVARAIYQSVIPIISAVGHETDYTIADFVADVRAATPTGAAELAVPDLKELISRVNQYTERLKRAQHELLKRQKEHLQRLQKSYAFRYPAQLVKQKELELDQQLERLTKHQRRMVSDAKDRLSQLEYRLKRIHPEGRLRQAEQARVKLEVLLKKEFQQMMERKEQQFQQAISSLNLLSPLRVMERGYALPYKAKTQELIKSVKQVRMNDRLHLRVTDGQLICDVKEIESESGGEGYDQKEGHHHHHH | not soluble
5 | PVPRTCWIGPWKKNLAQGKITLKLINWIKKAELKNQPVLIFFPEIEAMNQFAEALVNYDFTRPVTVHSADQLRKEKVEWLREGKIKLLLTTTILERGVTFKDVQVAVFGSEGRIFTEAALVQIAGRAGRKLTHPTGDVCFFHYGKTTEMNRAITHIKKMNQLGFKEG | soluble
6 | MSTSADYKINQQQIVCVASFLSKEGKTEALIAALASLIPDTRREAGCIRYELNVSRDEPRRVTFVEKFVDIAAFDEHCAKDAIQHYFHQVMPELVESFHVETYHQVIA | soluble
7 | MIIPALDLIDGTVVRLHQGDYARQRDYGNDPLPRLQDYAAQGAGVLHLVDLTGAKDPAKRQIPLIKTLVAGVNVPVQVGGGVRTEEDVAALLKAGVARVVIGSTAVKSPDVVKGWFERFGAQALVLALDVRIDEHGTKQVAVSGWQENSGVSLEQLVETYLPVGLKHVLCTDISRDGTLAGSNVSLYEEVCARYPQIAFQSSGGIGDIDDIAALRGTGVRGVIVGRALLEGKFTVKEAIQCWQNV | not soluble
8 | MSGINGAGPSNFFWRWRADDEPVTERERDSSSGANLTNSPQLRPESPTVSGRRLLRSNALSRQTREWQETTSASAERATPPVEPRQPPEAQPAERIVAERIVQELVRAGANLNNVRTMLRNVMDNNAVAFSRVEWNILLQHFPDMHTNGISSDSVLANELRQTLRQVVHQQRTQRALAPILSPAPSRPVASSSRSSQRTLLGRFTGWMAPRQTSSSSQATSSTSVDRHPQDLNQLESLRLADAERRNRSANQTDTDEALRRLTQAGVDMERLSTSLGRYIHSFQPAPPDLRRLLESVGIDPDIPEELTLVNNPVLNLNVALNRMLASRQATTESSSVFPSRAGDTRVRTLPVMPEREDNENNVAYGVRLLRLNPEAEVERVVEAFITDPSSRPEVVADIHAVLRSITSQFRQLRTISKADAESQDFRDAADYPDDPTSCLFGEDLSLSNPHQQVIGLAGESTDILQPYSQEGNKALRFMDMKKLAEHLASKPVHPMNRDRLDDKNIAGYAFRVVPD | not soluble
9 | MSLNTSLLILLVASFSSLVLSQNDSKKGGLPKKVHFSFGPAYLRNLTKEEKQQYYAIFGNKDLTIKQQEDQRLAFAEKHGFGQAIKDDIKLKAGNHELIRKERPEIIKNLLAAHEATMKIFDNKDQTLSQREAAVNALKKKYPHAPSTLYYISRLITGNGKHQTPFIKHH | not soluble
10 | GPGSMTQPSAVVAIGGGLRLLAQPAPTPTADGSSQALTDVFLSEYCAPLQRSSHHLHTHVPRYTVPTPASRRYTPRAGDPVLAIIARKVSQHYYYCYIGGSALAYMDALAFDGATKVSRPRLVEGDVVYCYVKPREGSSYVDGVHRSVASEVFDTTGEVEVSCTAAEVGLPPKDWTSGEAVFGPLQGGRVLHLPLVYVRRLLTPMGSSPEKASAQQRKRDHTEGEGSDGDEVPASYLLQLLGRRVPFEVAVGLNGLVWVRGLSSEADATAAARRTVAVSSCISEAQYDVTRAEMEARVEVYFPS | not soluble
11 | MNLIDNHIHTNFSSDGKDSMEDTIKKAISIGVRYLTFTDHLEHDEDRGFCINYNDYVPVFNKFKEKYKKDIELLLGVEVGYRKHLKNEIEEIINSNPFDFVLCSTHTIDNVPVPSKAYFKGLSKEDAYYKYFNSILETNREFGDYNIYGHLDYISRYGIYSDNRVIYNDFKDVIDEVLKSIINNGSGIELNTSGYRYGLNAIHPNEDILKRYKELGGFIVTVGSDSHRVEDICKDFDVAYDMLKYLDFKYVSLFKERETYFVNIEKVKSNNIA | not soluble
12 | MGTMVFVNFPVADVQRSTAFYEKLGFKKNEEFSTEEASSMMWDDQFWIMLLNHDFYGKFIQEKQIIDAQTTSGALISFSLESAEAVKQFGETAKANGGNCYRVDMGIPEEQMYGLEVQDLDGNSLEPVWMKM | not soluble
13 | VNKKDITYWEKRQERKYLAGEKKLDEYYKGLQKAFRQAKREIQSVINDFYMRYAKENKVSYAEAQKLLDKAEIGELQDFIDLVNKNMGKYNRKLNNMSIKARITRYQALEKQIDAILQQLYAIEYEYKGKELLKEVYEDSYYRTWFNIDQYHGFHQEFAQINPRTIEELIKYPWNGASFSDRIWKQKDHMLQVLKEDITTMLIQGKNPQTLARDFARRFKTKEYEAYRLLHTESSFIIEQGTLAAYKEDGVEKYQILATLDMRTSDICRSEDGKIYDVDEATVGVNYPPYHPFCRTTTVPYYEDAEVGTRVARDPVTGRSYEVPANMTYEQWKNRYIDQPDNIIRQEILSNPERLDNYSIQHYNKHKEGTKQYEQYKQSRLKKGQTEQSSLLISYDEAKEIIKKYAGTGVFSRDRKGKWRNEEFVDVDSIIGVVHNIDGTVTPTNRIQIKYGKNSVHIVPVLPRKERNK | soluble
14 | MATVTELKAVLKDTLEKRGVLGHLKARIRAEVFNALDDDREPRPSLSHENLLINELIREYLEFNKYKYTASVLIAESGQPVVPLDRQFLIRELNAFEESKDNSIPLLYGILAHFLRGPPDGAQNVLLTESTLHPATKHLSWKPSRRPDDDHVRKDTGPRTTTEELPAAAQAVSR | soluble
15 | MGSDKIHHHHHHMRLTCAIIDDEPLAVSLLESYVLKTPFLDLQGTYNSALDALSDLRDRPVDLLFLDIQMPELSGLEFSRILNADTRVIFTTAFDQYAVDSYRVNALDYLLKPISYPDFLASANKALRWYELLRKPVSSEEKEGSAPIAEKGGMESIFVKSEYKLLQIELRKILYIEGLKDYVKIFVEDEPRPVLSLMSMKSLEDMLPSDRFVRVHRSFIVQPEKIKVIERNRIVFGKEYIPISDNYKQHFLEMIERRSILPK | not soluble
16 | DLKDPIKISIPRYVLCGQGKDAHFEFEVKITVLDETWTVFRRYSRFREMHKTLKLKYAELAALEFPPKKLFGNKDERVIAERRSHLEKYLRDFFSVMLQSATSPLHINKVGLTLSKHTICEFSPFFKKGVFDYS | soluble
17 | MAHHHHHHMAKERNLDLKALQRSKRTVAHAYDAGVRSVPPALPLDIGGALAQVLTTRVTTCFGLHLIVTAQNEDAEQQSAPSLLMDVAVRAHLERLPLPVLHRLISDLCEVRAAWKRDLLAPSAAAAVQEQALLGRESINALLYHVCLWQRRYPLELLSAVLSFYDEHKHLFSPATSERCSASVQLESLLEEVQCLQYPDLSDVPGLIRCDVFMTYPHMPLGEQRQLMHTIAAAVVHRKAAGGLQRQSSCMGTEEKYVTDNLLRHSRTPPDPRLLLRSFVVDGAAAIPERFCTDMPTQTYHEMRAAFERHKHDGVRRLAAQDYGQAVTELTPPPPPPPPQPAASSVPSS | not soluble
18 | MTNPMQATRKIISITDQNVVHREDQVAREYPLTIYVNDREFATMVCTQADLEEMVIGFLGSEGLIRFYKQDVASLSIDESRGFAYVSLTKELPTEWQFYSKRMIGSCCGKSRQSFYFHNDAKTAKTSMSRTTMTPEQCFRLMEALQEQSVIFQQTGGVHNAALATPEQMLISRTDIGRHNALDKLYGYCLMNGVPVRDKVLLFSGRISSEVLLKAAKIGVGIMLSKSAPTELALTMAEELNITTAGFIRDGRMNIYTVPERILTPKKEVQLEHHHHHH | soluble
19 | EAIGASVIPMSAGNTEKQIMIMQDYKTTALVCTPSYAITIADRMEKMGVDPKSLSLKVGLFGAEPWSEAMRKEIENRLFVSATDNYGLSEIIGPGVAGDCEYKCGMHIS | not soluble
20 | MSLNDEMKGKSGKVKVMYVRSDDDSDKRTHNPRTGKGGGRPGKSRADGGRRPARDDKQSQPRDRKWEDSPWRTVSRAPGDETPEKADHGGISGKSFIDPEVLRRQRAEETRVYGENACQALFQSRPEAIVRAWFIQSVTPRFKEALRWMAANRKAYHVVDEAELTKASGTEHHGGVCFLIKKRNGTTVQQWVSQAGAQDCVLALENESNPHNLGGMMRSCAHFGVKGVVVQDAALLESGAAIRTAEGGAEHVQPITGDNIVNVLDDFRQAGYTVVTTSSEQGKPLFKTSLPAKMVLVLGQEYEGLPDAARDPNDLRVKIDGTGNVAGLNISVATGVLLGEWWRQNKAEGHHHHHH | soluble
21 | MKGFCYRCGHEGELLDGLCKICYTHMNPLIEVDNEVHVEVCHMCGSYKRKLWQDPQKRETYEIMEEIAYFGVKDNLKKANKSIDVEIMPQEPRQLPGGKRSRVEIPTVVFAKGRLVGEDNDREEERHITVYLDMVQCPRCSRCMSNYYEGTLQVRAMNRFLNDKERIELDDFVRDEAGKRLNKDRMAFISKYIPQKEGLDYQMGSMGAIRNIASAIKAKYGGKSIETAKLVGVDKDTGKDMYRITVAVRIPEFKLGDILEHKEKIYVVSSLNESRVYMEPVELGDKIALVWNEIDKSAKLIKKGEDCETATVISITPDTITAMDDSNYEIYEYNNTIENVKEGNKIRIFKNEEINRILEIIELEHHHHHH | soluble
22 | MRPMPTDDINSRIAELEADNRRLRQLLDKRDAPGELRHRLRSTVAMLRTIIRKSASKRHSLDTYVGHLEDRLDALMRAQAIADEQGAIDFHKLLADELLHYQARDGERVTFAGPDLHLQARAGQVLALAVHELAVNAVEHGALGGDGTIDIRWSVAGAGPAPLLTFVWKETDTAPVAEPSHHGFGTEVLTRTLEYELKAKTDLAFEPDGLRCTIRFPLSERVDGSQAG | not soluble
